Key:
[1] = target: AddAB (Bacillus subtilis, UniProt P23478;P23477 1-1232;1-1166); test: EMSA
[2] = target: AddANBN (Bacillus subtilis, UniProt P23478;P23477 1-1232;1-1166, D1172A;D961A); test: EMSA

| Binder | binding result [1] | binding result [2] |
| --- | --- | --- |
| Bind15 (dsDNA) DNA 1: CCGCCTCTTGGCCGATTCA DNA 2: TCGGCCAAGAGGCGGTTTG | binds |  |
| Cy5Bind15 (dsDNA) DNA 1: CCGCCTCTTGGCCGATTCA DNA 2: TCGGCCAAGAGGCGGTTTG |  | binds |

Reference: article PMC3064778
